Patent US20250282885A1 (VST BIO, published 2025)

B1: 20-H19-AB (antibody, mouse IgG1, kappa, V domains shown)
VH: EVQLVESGGGLVQPKGSLKLSCAASGFTFNIYAMHWVRQAPGKGLEWIARIGSKSSYYATYYADSVKDRFTISRDDSQSMLYLQTNNLKTEDTAMYYCVSGKGDWGQGTTLTVSS
VL: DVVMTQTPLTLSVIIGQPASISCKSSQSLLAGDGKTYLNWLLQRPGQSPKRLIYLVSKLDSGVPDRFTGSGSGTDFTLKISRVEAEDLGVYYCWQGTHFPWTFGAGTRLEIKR
notes: PentaMice hybridoma clone, made recombinantly in CHO cells; also called 20-H1-AB
B2: 8-G17-A (antibody, V domains shown)
VH: EVQLVESGGGLVKPGGSLKLSCEASGITFSNYVMSWVRQTPEKRLEWVATISDGGSYTYYPDNLKGRFTISRDNAKNNLYLQMSHLKSEDTAMYYCVRDRYDYDGRVYAMDYWGQGTSVTVSS
VL: DVVMTQTPLSLPVSLGDQASISCRSSQSLVHSNGNTYLHWYLQKPGQSPKLLIYKVSNRFSGVPDRFSGSGSGTDFTLKITRVEAEDLGVYFCSQSTHVPWTFGGGTKLEIKR
notes: PentaMice hybridoma clone, made recombinantly in CHO cells

Assays:
human Sdc2 [1] = molecular target: T1, human Sdc2 (human, UniProt P34741 19-144, limits assumed); assay: Octet tandem binning; saturating Ab f10 19838-10-I12-A
T1 construct: Antigen of the Octet tandem binning, loaded on biosensors at 100 nM; also called huSdc2; hSdc2
T1 sequence (P34741 19-144 limits assumed): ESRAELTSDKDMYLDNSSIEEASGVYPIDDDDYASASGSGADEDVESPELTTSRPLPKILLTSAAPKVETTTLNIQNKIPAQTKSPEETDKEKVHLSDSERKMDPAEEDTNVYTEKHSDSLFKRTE
Protocol: (§1) These studies were performed in a tandem binning assay format with human Sdc2, used as the antigen (concentration of 100 nM). Antigen loaded biosensors were dipped in a saturating solution of antibody (25 μg/ml) for 240 seconds followed by a competing antibody at 5 μg/ml for 180 seconds. […] Since saturation is not possible to achieve saturation with these clones, they are removed in as ligands, but retained in the analyte orientation in the analysis. A table summarizing the results of epitope binning of the 18 antibodies against huSdc2 is illustrated in FIG. 30. Data is normalized, where the raw binding signal from Competing Ab for a given Saturating Ab is divided by binding in the absence a […] (“buffer”). The threshold determining the matrix color is adjustable and dependent upon Ag-Ab binding. […] Table rows are based on similar looking binding profiles. Note that the coloration/cutoff is subjective, yellow color added to represent injections with ambiguous or very weak sandwiching signals. FIG. 31 illustrates a clustergram of the epitope binning studies, which was generated from the normalized binning data by importation into the statistical computing program R (The R Project for Statistical Computing: at r-project.org) and generation of a clustergram with the pvclust package.

human Sdc2 [2] = molecular target: T1, human Sdc2; assay: Octet BLI, heading box over the sensorgram
human Sdc2 [3] = molecular target: T1, human Sdc2; assay: Octet tandem binning; saturating Ab m7 19844-R3-P1-E07
Protocol: as §1

human Sdc2 [4] = molecular target: T1, human Sdc2; assay: Octet tandem binning; saturating Ab f7 19844-R3-P3-A12
Protocol: as §1

human Sdc2 [5] = molecular target: T1, human Sdc2; assay: Octet tandem binning; saturating Ab f6 19844-R3-P3-E09
Protocol: as §1

[6] = molecular target: human Sdc2 on Human Umbilical Vein Endothelial Cells (HUVEC) (human, UniProt P34741 19-201); assay: cell-based or functional assay
human Sdc2 on Human Umbilical Vein Endothelial Cells (HUVEC), sequence (P34741 19-201 limits assumed): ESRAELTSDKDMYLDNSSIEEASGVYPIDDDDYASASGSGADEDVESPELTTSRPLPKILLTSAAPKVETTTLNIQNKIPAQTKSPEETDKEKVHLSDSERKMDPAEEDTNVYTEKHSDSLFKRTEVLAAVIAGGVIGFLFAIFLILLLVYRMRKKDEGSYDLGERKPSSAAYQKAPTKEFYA

pig Sdc2 [7] = molecular target: T2, pig Sdc2 (pig, UniProt F1S0L5 19-145); assay: Octet BLI, HIS1K sensor loaded with pigSdc2, antibody as sample; Full R2 0.9988; heading box reads Pig Sdc2 (Kd~ low femtomolar)
T2 construct: also called pSdc2
Protocol: (§2) In order to characterize the binding affinity and in vivo/in vitro functional ability of the twelve clones generated by the previous studies and disclosed in Table 1, a series of assays were performed on each clone. These assays measured the affinity of each antibody clone for human, pig, and mouse Sdc2 using an Octet® binding assay system. Additionally, the functional ability of each clone to inhibit VEGFA-driven permeability (see Santiago, et al. (2021) J Am Heart Assoc. 10(18):e020521) was assessed in two therapeutic settings: a “prevention” study in which three concentrations of antibody (5 μg/ml, 10 μg/ml, 15 μg/ml, 20 μg/ml, and/or 40 μg/ml depending on the study) were pre-incubated for an hour before administration of 100 ng/ml of VEGFA, and a “treatment” study in which 3 hours of pre-treatment with 100 ng/ml VEGFA were followed by treatment with antibody at 20 μg/ml or 40 μg/ml. Results are shown for 8-G17 in FIG. 8 and FIG. 9, 20-H19-AB in FIG. 10 and FIG. 11 (FIG. 12 for monkey ECs), R3-P3-C11 in FIG. 13 and FIG. 14, R4M-P3-E06 in FIG. 15 and FIG. 16, R3-P3-E09 in FIG. 17 and FIG. 18, R3-P1-C02 in FIG. 19 and FIG. 20, R3-P3-A12 in FIG. 21 and FIG. 22, R4M-P3-A12 in FIG. 23 and FIG. 24, and R4M-P1-A10 in FIG. 25 and FIG. 26.

human Sdc2 [8] = molecular target: T1, human Sdc2; assay: Octet tandem binning; saturating Ab f12 19838-6-N03-A
Protocol: as §1

human Sdc2 [9] = molecular target: T1, human Sdc2; assay: Octet tandem binning; saturating Ab m5 19844-R4M-P3-A12 (row boxed, self-self >0.09)
Protocol: as §1

human Sdc2 [10] = molecular target: T1, human Sdc2; assay: Octet tandem binning; saturating Ab f9 19838-6-E17-A
Protocol: as §1

human Sdc2 [11] = molecular target: T1, human Sdc2; assay: Octet tandem binning; saturating Ab f4 19844-R3-P3-C11
Protocol: as §1

human Sdc2 [12] = molecular target: T1, human Sdc2; assay: Octet tandem binning; saturating Ab f11 19838-20-H19-A
Protocol: as §1

human Sdc2 [13] = molecular target: T1, human Sdc2; assay: Octet tandem binning; saturating Ab m8 19844-R4M-P1-B01 (marked non-binding ligand)
Protocol: as §1

human Sdc2 [14] = molecular target: T1, human Sdc2; assay: Octet tandem binning; saturating Ab f5 19844-R4M-P3-E06
Protocol: as §1

pig Sdc2 [15] = molecular target: T2, pig Sdc2; assay: Octet BLI, HIS1K sensor loaded with pigSdc2, antibody as sample; Full R2 0.9988
Protocol: as §2

human Sdc2 [16] = molecular target: T1, human Sdc2; assay: Octet tandem binning; Buffer in place of a saturating Ab
Protocol: as §1

human Sdc2 [17] = molecular target: T1, human Sdc2; assay: Octet tandem binning; saturating Ab m3 19844-R3-P1-C02 (row boxed, self-self >0.09)
Protocol: as §1

human Sdc2 [18] = molecular target: T1, human Sdc2; assay: Octet BLI, HIS1K sensor loaded with huSdc2, antibody as sample; Full R2 0.998
human Sdc2 [19] = molecular target: T1, human Sdc2; assay: Octet tandem binning; saturating Ab m6 19838-20H19-AA (marked non-binding ligand)
Protocol: as §1

human Sdc2 [20] = molecular target: T1, human Sdc2; assay: Kd (human Sdc2), summary table of the mAbs
human Sdc2 [21] = molecular target: T1, human Sdc2; assay: Octet tandem binning; saturating Ab m4 19844-R4M-P1-A10
Protocol: as §1

human Sdc2 [22] = molecular target: T1, human Sdc2; assay: Octet tandem binning; saturating Ab f8 19844-R4M-P2-C02
Protocol: as §1

human Sdc2 [23] = molecular target: T1, human Sdc2; assay: Octet tandem binning; saturating Ab m2 19838-8G17-A
Protocol: as §1

human Sdc2 [24] = molecular target: T1, human Sdc2; assay: Octet tandem binning; saturating Ab f3 19838-6N03-A
Protocol: as §1

pig Sdc2 [25] = molecular target: T2, pig Sdc2; assay: Octet BLI, HIS1K sensor loaded with pigSdc2, antibody as sample; Full R2 0.997
human Sdc2 [26] = molecular target: T1, human Sdc2; assay: Octet BLI, HIS1K sensor loaded with huSdc2, antibody as sample; Full R2 0.9968
human Sdc2 [27] = molecular target: T1, human Sdc2; assay: Octet tandem binning; saturating Ab m1 19838-20H19-AB
Protocol: as §1

human Sdc2 [28] = molecular target: T1, human Sdc2; assay: Octet BLI, heading box over the sensorgram; remark: listed apart in the source
Protocol: as §2

pig Sdc2 [29] = molecular target: T2, pig Sdc2; assay: Octet BLI, heading box over the sensorgram
Protocol: as §2

| Binder | raw competing-Ab binding signal (human Sdc2 [1]) | raw competing-Ab binding signal (human Sdc2 [3]) | raw competing-Ab binding signal (human Sdc2 [4]) | raw competing-Ab binding signal (human Sdc2 [5]) | % Inhibition of VEGFA-induced permeability at 24hrs (20ug/ml) [6] [%] | raw competing-Ab binding signal (human Sdc2 [8]) | raw competing-Ab binding signal (human Sdc2 [9]) | raw competing-Ab binding signal (human Sdc2 [10]) | raw competing-Ab binding signal (human Sdc2 [11]) | raw competing-Ab binding signal (human Sdc2 [12]) | raw competing-Ab binding signal (human Sdc2 [13]) | raw competing-Ab binding signal (human Sdc2 [14]) | raw competing-Ab binding signal (human Sdc2 [16]) | raw competing-Ab binding signal (human Sdc2 [17]) | raw competing-Ab binding signal (human Sdc2 [19]) | Kd (human Sdc2 [20]) [nM] | raw competing-Ab binding signal (human Sdc2 [21]) | raw competing-Ab binding signal (human Sdc2 [22]) | raw competing-Ab binding signal (human Sdc2 [24]) | further results |
| --- | --- | --- | --- | --- | --- | --- | --- | --- | --- | --- | --- | --- | --- | --- | --- | --- | --- | --- | --- | --- |
| B1 | 0.0503 | 0.214 | -0.102 | -0.0179 | 90 | 0.0082 | 0.173 | 0.171 | -0.0618 | 0.0503 | 0.161 | 0.158 | 0.197 | 0.0781 | 0.192 | 0.37 | 0.0759 | 0.0763 | -0.0355 | Kd (human Sdc2 [2]): ~0.37 nM; Kd (pig Sdc2 [7]): < 0.001 nM; koff (pig Sdc2 [15]): < 1e-07 s⁻¹; kon (pig Sdc2 [15]): 70700 M⁻¹ s⁻¹; Kd (human Sdc2 [18]): 0.369 nM; koff (human Sdc2 [18]): 3.18e-05 s⁻¹; kon (human Sdc2 [18]): 86200 M⁻¹ s⁻¹; raw competing-Ab binding signal (human Sdc2 [23]): -0.0786 |
| B2 | 0.113 | 0.871 | 0.636 | 0.761 | 100 | 0.0566 | 0.858 | 0.79 | 0.776 | 0.241 | 0.827 | 0.954 | 0.83 | 0.784 | 0.891 | 0.46 | 0.805 | 0.777 | 0.0574 | Kd (pig Sdc2 [25]): 0.455 nM; koff (pig Sdc2 [25]): 0.000195 s⁻¹; kon (pig Sdc2 [25]): 428000 M⁻¹ s⁻¹; Kd (human Sdc2 [26]): 0.466 nM; koff (human Sdc2 [26]): 0.000235 s⁻¹; kon (human Sdc2 [26]): 505000 M⁻¹ s⁻¹; raw competing-Ab binding signal (human Sdc2 [27]): 0.16; Kd (human Sdc2 [28]): ~0.46 nM; Kd (pig Sdc2 [29]): ~0.45 nM |
